This note sets out measurements from patent US20250277023A1 (published 2025).

The assay addresses PD-L1 (on CHO-PD-L1 cells) (UniProt Q9NZQ7 19-290). In words: FACS binding; Fig. 22.

Chain of PD-L1 (on CHO-PD-L1 cells) (Q9NZQ7 19-290): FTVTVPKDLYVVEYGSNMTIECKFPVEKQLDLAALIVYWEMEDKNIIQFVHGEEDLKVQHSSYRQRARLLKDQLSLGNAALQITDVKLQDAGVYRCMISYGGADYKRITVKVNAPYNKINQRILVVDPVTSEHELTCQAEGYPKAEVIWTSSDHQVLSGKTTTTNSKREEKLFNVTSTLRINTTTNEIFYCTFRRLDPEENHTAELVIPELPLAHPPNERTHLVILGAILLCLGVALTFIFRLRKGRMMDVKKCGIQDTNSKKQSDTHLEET

B1: R1120: TIGIT_VH_IL18R1_D1D2D3/TIGIT_VL_IL18/PD-L1-Fab (bispecific antibody)
chain 1: QVQLVQSGAEVKKPGSSVKVSCKASGYSFTSYWMNWVRQAPGQGLEWIGMIRPSDSETRLNQMFKDRVTITVDKSTSTAYMELSSLRSEDTAVYYCAGIHDYGHGAYWGQGTLVTVSSGGGGSGGGGSGGGGSGGGGSGCTSRPHITVVEGEPFYLKHCSCSLAHEIETTTKSWYKSSGSQEHVELNPRSSSRIALHDCVLEFWPVELNDTGSYFFQMKNYTQKWKLNVIRRNKHSCFTERQVTSKIVEVKKFFQITCENSYYQTLVNSTSLYKNCKKLLLENNKNPTIKKNAEFEDQGYYSCVHFLHHNGKLFNITKTFNITIVEDRSNIVPVLLGPKLNHVAVELGKNVRLNCSALLNEEDVIYWMFGEENGSDPNIHEEKEMRIMTPEGKWHASKVLRIENIGESNLNVLYNCTVASTGGTDTKSFIEPKSSDKTHTCPPCPAPELLGGPSVFLFPPKPKDTLMISRTPEVTCVVVDVSHEDPEVKFNWYVDGVEVHNAKTKPREEQYNSTYRVVSVLTVLHQDWLNGKEYKCKVSNKALPAPIEKTISKAKGQPREPQVYTLPPSREEMTKNQVSLTCRVKGFYPSDIAVEWESNGQPENNYKTTPPVLKSDGSFFLASKLTVDKSRWQQGNVFSCSVMHEALHNHYTQKSLSLSPGK
chain 2: not shown
heavy: EVQLQESGPGLVKPSETLSLTCAVYGDSITSGYWNWIRKPPGKGLEYMGYISYTGSTYQNPSLKSRITFSRDTSKNQYYLKLSSVTAADTATYYCARSRAWIRTYFDYWGQGTLVTVSSASTKGPSVFPLAPSSKSTSGGTAALGCLVKDYFPEPVTVSWNSGALTSGVHTFPAVLQSSGLYSLSSVVTVPSSSLGTQTYICNVNHKPSNTKVDKRVEPKSCDKTHTCPPCPAPELLGGPSVFLFPPKPKDTLMISRTPEVTCVVVDVSHEDPEVKFNWYVDGVEVHNAKTKPREEQYNSTYRVVSVLTVLHQDWLNGKEYKCKVSNKALPAPIEKTISKAKGQPREPQVYTLPPSREEMTKNQVSLWCLVKGFYPSDIAVEWESNGQPENNYDTTPPVLDSDGSFFLYSDLTVDKSRWQQGNVFSCSVMHEALHNHYTQKSLSLSPGK
light: EIVLTQSPDFQSVTPKEKVTITCSVSSSISSSNLHWYQQKPDQSPKLLIYGTSNLASGVPSRFSGSGSGTDFTLTINSLEAEDAATYYCQQWSSYPLTFGQGTKLEIKRTVAAPSVFIFPPSDEQLKSGTASVVCLLNNFYPREAKVQWKVDNALQSGNSQESVTEQDSKDSTYSLSSTLTLSKADYEKHKVYACEVTHQGLSSPVTKSFNRGEC
In general, EC50 refers to the midpoint of the concentration-response curve. Read a high EC50 as a need for much substance. With B1, the EC50 worked out at 2.99 nM.

B2: R1116: TIGIT_VH_IL2/TIGIT_VL_IL2RA/PD-L1-Fab (bispecific antibody)
chain 1: not shown
chain 2: DIQMTQSPSSLSASVGDRVTITCRASENIYSNLAWYQQKPGKSPKLLVYAASHLPDGVPSRFSGSGSGTDYSLTISSLQPEDFATYYCQHFWGTPRTFGQGTKLEIKGGGGSGGGGSGGGGSGGGGSGELCDDDPPEIPHATFKAMAYKEGTMLNCECKRGFRRIKSGSLYMLCTGNSSHSSWDNQCQCTSSATRNTTKQVTPQPEEQKERKTTEMQSPMQPVDQASLPGHCREPPPWENEATERIYHFVVGQMVYYQCVQGYRALHRGPAESVCKMTHGKTRWTQPQLICTG
heavy: B1 heavy
light: B1 light
Turning to B2, it took 4.15 nM to reach a half-maximal effect (EC50).
